One block for each binder: values may come before it.
Tests used:
[1] = target: T1, LGde2, human LAMA4 G domain with LG2 deleted, displayed on 293 cells (human, UniProt Q16363 830-1821, limits assumed); test: flow cytometry on 293 cells displaying LAMA4 G-domain variants; % binding
T1 construct: pDisplay construct on 293 cells; vector tags and anchor not written here; also called LGde2 (LG13)
T1 sequence: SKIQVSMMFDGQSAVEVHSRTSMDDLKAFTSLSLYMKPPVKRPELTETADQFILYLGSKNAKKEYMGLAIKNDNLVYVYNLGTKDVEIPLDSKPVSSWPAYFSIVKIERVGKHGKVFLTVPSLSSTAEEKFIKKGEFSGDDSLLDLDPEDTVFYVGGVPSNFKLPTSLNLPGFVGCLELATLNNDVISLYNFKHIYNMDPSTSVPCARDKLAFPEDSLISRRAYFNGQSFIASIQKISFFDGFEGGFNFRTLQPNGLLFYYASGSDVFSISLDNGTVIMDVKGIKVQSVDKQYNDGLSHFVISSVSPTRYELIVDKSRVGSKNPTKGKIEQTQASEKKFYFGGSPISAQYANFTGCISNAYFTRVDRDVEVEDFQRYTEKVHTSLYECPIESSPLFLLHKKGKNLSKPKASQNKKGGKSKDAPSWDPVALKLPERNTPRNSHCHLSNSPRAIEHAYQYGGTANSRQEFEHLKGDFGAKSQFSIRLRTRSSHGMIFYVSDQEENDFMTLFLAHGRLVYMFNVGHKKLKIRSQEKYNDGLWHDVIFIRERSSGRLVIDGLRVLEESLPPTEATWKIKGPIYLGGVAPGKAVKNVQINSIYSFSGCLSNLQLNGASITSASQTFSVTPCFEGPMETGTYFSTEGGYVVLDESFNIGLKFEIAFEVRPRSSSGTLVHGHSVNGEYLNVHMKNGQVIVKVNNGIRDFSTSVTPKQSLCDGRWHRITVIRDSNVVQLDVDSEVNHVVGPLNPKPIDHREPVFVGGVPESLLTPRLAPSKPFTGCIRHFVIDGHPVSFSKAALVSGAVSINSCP
Excerpt: (§1) LGde1 has a full-length G domain (i.e., LG1-5) with LG1 deleted, LGde2 has a full-length G domain with LG2 deleted, and LGde3 has a full-length G domain with LG3 deleted. Recombinant MCAM-Fc protein was able to specifically bind 293 cells expressing LAMA4 variants LG1-5, LG1-3, and LGde 1 (LG23), but not 293 cells expressing LAMA 4 variants LG4-5, LGde2 (LG13), or LGde3 (LG12).

[2] = target: T2, LGde3, human LAMA4 G domain with LG3 deleted, displayed on 293 cells (human, UniProt Q16363 830-1821, limits assumed); test: as above
T2 construct: pDisplay construct on 293 cells; vector tags and anchor not written here; also called LGde3 (LG12); LGde3 (LG23)
T2 sequence: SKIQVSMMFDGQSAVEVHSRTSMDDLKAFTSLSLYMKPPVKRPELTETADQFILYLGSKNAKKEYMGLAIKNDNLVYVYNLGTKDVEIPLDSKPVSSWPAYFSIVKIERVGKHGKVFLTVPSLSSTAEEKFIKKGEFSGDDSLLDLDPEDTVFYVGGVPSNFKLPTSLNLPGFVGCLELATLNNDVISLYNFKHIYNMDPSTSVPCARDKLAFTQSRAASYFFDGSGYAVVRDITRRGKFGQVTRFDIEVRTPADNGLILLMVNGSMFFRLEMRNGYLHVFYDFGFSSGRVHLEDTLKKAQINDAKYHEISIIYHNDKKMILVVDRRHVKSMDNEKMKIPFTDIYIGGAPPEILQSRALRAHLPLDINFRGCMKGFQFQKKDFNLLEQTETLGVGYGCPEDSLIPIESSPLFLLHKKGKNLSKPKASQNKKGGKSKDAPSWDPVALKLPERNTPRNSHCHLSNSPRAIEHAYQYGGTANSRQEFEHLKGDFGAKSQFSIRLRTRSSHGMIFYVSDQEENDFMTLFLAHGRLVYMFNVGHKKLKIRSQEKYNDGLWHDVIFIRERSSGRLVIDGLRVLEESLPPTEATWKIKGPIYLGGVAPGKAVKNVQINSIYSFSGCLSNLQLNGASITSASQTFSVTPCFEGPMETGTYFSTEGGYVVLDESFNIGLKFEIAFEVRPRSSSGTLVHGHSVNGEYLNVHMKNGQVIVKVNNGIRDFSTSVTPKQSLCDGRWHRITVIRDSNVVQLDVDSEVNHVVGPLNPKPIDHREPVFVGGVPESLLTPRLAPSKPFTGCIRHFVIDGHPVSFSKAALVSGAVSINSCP
Excerpt: as §1

binding result [1]: no binding
binding result [2]: no binding
B1: mouse monoclonal antibody 1C1 (antibody, V domains shown)
VH: QVQLQQSGAELARPGASVKLSCKASGYTFTNYGISWVKQRTGQGLEWIGAIYPRSGNTYYNEKFKGKATLTADKSSSTAYMELRSLTSEDSAVYFCARERDYGSSYALDYWGQGTSVTVSS
VL: DIVMTQSQKFMSTSVGDRVSVTCKASHNVGTNVAWYQQKPGQSPKPLIYSASYRYSGVPDRFTGSGSGTDFTLTISNVQSEDLADYFCQQFNNYPYTFGGGTKLEIKR
notes: version 1 is written here

binding result [1]: no binding
binding result [2]: no binding
B2: mouse monoclonal antibody 19C12 (antibody, V domains shown)
VH: QVQLQQSGAELVKPGASVKISCKASGYAFSTYWMNWVKQRPGEGLEWIGQIYPGDGDTNYNGKFKGKATLTADKSSSTAYMQLSSLTSEDSAVYFCARSDGYYDYWGQGTTLTVSS
VL: NIVLTQSPASLAVSLGQRATISCRASESVDSYGTSFMHWYQQKPGQPPKLLICLASSLESGVPARFSGSGSRTDFTLTIDPVEADDAATYYCQQNNEDPPTFGAGTKLELKR
notes: Mouse hybridoma antibody; Mouse IgG2b was used as its isotype control; also called m19C12
